Measurements: article PMC4151990, “Tetrameric c-di-GMP Mediates Effective Transcription Factor Dimerization to Control Streptomyces Development” (Cell, 2014)

Tests used:
BldD = molecular target: T1, BldD (Streptomyces venezuelae, UniProt F2RCL8); experiment: fluorescence polarization; type: binding
T1 construct: gene SVEN_1089; CTD (residues 80-166), purified from Sf9 cells
T1 sequence (F2RCL8 80-166): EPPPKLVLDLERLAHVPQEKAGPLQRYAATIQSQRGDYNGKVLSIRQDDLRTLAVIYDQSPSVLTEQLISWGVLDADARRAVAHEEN

[1] = tested on: T2, His6-BldD full length (Streptomyces venezuelae), ORF:0f1775d8; experiment: EMSA; conditions: EMSA: 10 mM Tris pH 7.5, 1 mM EDTA, 5% glycerol, 10 mM NaCl, 1 mM MgCl2, 0.5 ug poly[d(I-C)] in 20 ul, 20 min room temperature; 5% PAGE in 0.5x TBE
T2 sequence: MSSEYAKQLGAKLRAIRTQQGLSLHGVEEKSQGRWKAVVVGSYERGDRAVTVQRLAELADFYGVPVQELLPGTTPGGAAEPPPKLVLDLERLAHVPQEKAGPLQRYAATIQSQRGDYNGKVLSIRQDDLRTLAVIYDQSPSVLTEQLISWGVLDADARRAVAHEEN

[2] = molecular target: His6-BldD-DBD (S. venezuelae BldD DNA-binding domain, residues 1-79) (Streptomyces venezuelae); experiment: cross-linking; 10 μM protein, 1 mM DSS, no c-di-GMP; 100 mM NaH2PO4, 150 mM NaCl, pH 8, room temperature 30 min; SDS-PAGE, Coomassie

2′-O-(6-[Fluoresceinyl]aminohexylcarbamoyl)-cyclic diguanosine monophosphate [2′-Fluo-AHC-c-di-GMP]
Kd (BldD): 2500 ± 600 nM

CTAGCCACAGACACCGCGAAAAGGGAAGAAAACCCGCTAAATGGGGCATAGCTTTCGATGAACGACAGAAGGCTCGCGTCGCTCTCCTCTGTACGCGCCCCCTCACGTAGAGTGCCGAAGGGTGCCGTCCGACCCGTAACTCTTTCGAGTGACCGTCG (double strand) [bldM promoter fragment, 158 bp]
binding [1]: binds

GTTCGAAGATGTGGCCGACGGCGTCCACCCGGAGCGGCGCTCTCCGCCGACGTTCGCGCACCGCGACCGCGCACTCACGCTACGCTCACCAGGATTCCGTCCAGGACACCCGCACCGACACACCCGACAGCAGAACGGCTCAAGGCAACGC (double strand) [whiG promoter fragment, 151 bp]
binding [1]: binds

His6-BldD-DBD (S. venezuelae BldD DNA-binding domain, residues 1-79) (domain or fragment)
stoichiometry N [2]: 2
